No end group written: not given here.
Legend:
[1] = molecular target: T1, PSA (human, UniProt P07288); assay: competition, IFMA with free PSA
[2] = molecular target: hK2 (human, UniProt P20151); assay: other, IFMA
[3] = molecular target: T2, cathepsin G (human, UniProt P08311); assay: other, IFMA
T2 chain: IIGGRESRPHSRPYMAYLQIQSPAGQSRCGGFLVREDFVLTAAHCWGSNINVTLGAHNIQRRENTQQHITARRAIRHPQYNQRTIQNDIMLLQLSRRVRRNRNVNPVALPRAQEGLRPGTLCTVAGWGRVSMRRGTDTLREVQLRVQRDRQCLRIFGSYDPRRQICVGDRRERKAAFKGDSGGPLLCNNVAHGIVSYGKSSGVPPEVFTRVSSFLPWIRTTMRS

[4] = molecular target: trypsin; assay: other, IFMA
[5] = molecular target: T1, PSA; assay: other, IFMA

T1 sequence (P07288 25-261): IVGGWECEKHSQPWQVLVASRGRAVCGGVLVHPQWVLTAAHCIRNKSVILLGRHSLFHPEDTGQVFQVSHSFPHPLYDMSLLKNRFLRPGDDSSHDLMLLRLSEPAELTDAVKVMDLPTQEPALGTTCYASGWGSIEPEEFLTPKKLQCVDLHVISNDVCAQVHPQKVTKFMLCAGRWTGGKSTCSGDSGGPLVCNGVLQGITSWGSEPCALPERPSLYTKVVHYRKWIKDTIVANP
Sequence of hK2 (P20151 25-261): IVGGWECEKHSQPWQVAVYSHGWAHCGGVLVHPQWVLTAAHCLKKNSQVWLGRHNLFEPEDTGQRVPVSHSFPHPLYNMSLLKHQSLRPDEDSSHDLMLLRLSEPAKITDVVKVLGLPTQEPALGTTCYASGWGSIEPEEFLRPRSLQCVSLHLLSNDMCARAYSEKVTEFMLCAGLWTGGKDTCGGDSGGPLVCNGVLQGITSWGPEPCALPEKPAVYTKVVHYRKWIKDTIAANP

B1: GST-C-4 (peptide)
chain: CVAYCIEHHCWTC
IC50 [1]: 0.7 nM | binding result [2]: no binding | binding result [3]: no binding | binding result [4]: no binding

B2: GST-D-1 (peptide)
chain: CLSTCAQSCRISC
modifications: not fully specified (bridges); cysteine pairing not given here; also: GST fusion protein
binding result [5]: no binding
